The target in this experiment is H3.2–H4 tetramer (human) (UniProt Q71DI3). The experiment is described as follows: SEC-MALS. In general terms: SEC sorts molecules by how far they enter the pores of the column.

For the substance “MCM2 HBD(43–160) (from UniProt P49736 43-160) (domain or fragment)”, the stoichiometry N (MCM2 HBD per H3–H4 tetramer) worked out at 2.

The values are drawn from paper PMC4685956.
